Experimental data as given in patent US20220194999A1 (Janssen / Centocor, published 2022).

Key:
[1] = target: T1, HLA-A*02:01 class I complex (conditional p*HLA*02:01, biotinylated heavy chain with beta2-microglobulin) (human, biotinylated heavy chain); test: UV peptide exchange, HLA class I ELISA, % of Pos peptide;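 for Average %: Streptavidin-captured HLA complexes after exchange detected via HRP anti-human B2M antibody, absorbance read, colour scales with intact complex, normalized to exchange control peptide as 100%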;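 for Exch I (%): Streptavidin-captured HLA complexes after exchange detected via HRP anti-human B2M antibody, absorbance read, colour scales with intact complex, normalized to exchange control peptide as 100%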;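 for Exch II (%): Streptavidin-captured HLA complexes after exchange detected via HRP anti-human B2M antibody, absorbance read, colour scales with intact complex, normalized to exchange control peptide as 100%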
T1 construct: UV-labile peptide p* is cleaved and exchanged for the test peptide; also called HLA 2.1
Text: (§1) The HLA class I ELISA is an enzyme immunoassay based on the detection of beta2-microglobulin (B2M) of (peptide-stabilized) HLA class I complexes. To this end streptavidin is bound onto polystyrene microtiter wells. After washing and blocking, HLA complex present in exchange reaction mixtures or ELISA controls is captured by the streptavidin on the microtiter plate via its biotinylated heavy chain. Non-bound material is removed by washing. Subsequently, horseradish peroxidase (HRP)-conjugated antibody to human B2M is added. […] In the latter case B2M is removed during the washing step. After removal of non-bound HRP conjugate by washing, a substrate solution is added to the wells. A colored product is formed in proportion to the amount of intact HLA complex present in the samples. After the reaction has been terminated by the addition of a stop solution, absorbance is measured in a microtiter plate reader. The absorbance is normalized to the absorbance of an exchange control peptide (represents 100%). Also, suboptimal HLA binding of peptides with a moderate to low affinity for HLA class I molecules can be detected by this ELISA technique
(§2) Coating wells of two NUNC MaxiSorp™ 96-well ELISA plates: only the contents of one coating buffer capsule were dissolved in 100 mL of distilled water (0.05 M carbonate-bicarbonate buffer, pH 9.6 at 25° C.). 46 μL of Streptavidin stock solution were added to 23 mL coating buffer. 100 μL of the Streptavidin stock solution were added to all wells. Each microtiter plate was covered with an adhesive seal and incubated overnight at room temperature (18-25° C.).

[2] = target: T1, HLA-A*02:01 class I complex …; test: UV peptide exchange, HLA class I ELISA; high end of the group, member by Table 4
Text: as §1, §2

[3] = target: T1, HLA-A*02:01 class I complex …; test: UV peptide exchange, HLA class I ELISA, % of Pos peptide; remark: listed apart in the source
[4] = target: T1, HLA-A*02:01 class I complex …; test: UV peptide exchange, HLA class I ELISA; low end of the group, member by Table 4
Text: as §1, §2

[5] = target: T1, HLA-A*02:01 class I complex …; test: UV peptide exchange, HLA class I ELISA, % of Pos peptide; remark: listed apart in the source
Text: as §1, §2

Binder | Average % [1] [%] | Exch I (%) [1] [%] | Exch II (%) [1] [%] | average relative binding (%) [2] [%] | Mutant Binding [3] [%] | average relative binding (%) [4] [%] | average relative binding (%) [5] [%]
ALNNMFCQV (also called M161) [TP53_K132N5 mimic peptide ALNNMFCQV] | 69.3 | 69.7 | 68.8 | 61 to 69 |  |  | 
ALNNMFCQL (also called M160) [TP53.K132N mutant peptide ALNNMFCQL] | 41.3 | 39.6 | 43.1 |  | 41.3 | 41 to 49 | 
LLVVGAAGV (also called M051) [KRAS_G12A2 mimic peptide LLVVGAAGV] | 33.3 | 34.1 | 32.5 |  |  | 33 to 38 | 
LMVVGACGV (also called M062) [KRAS_G12C3 mimic peptide LMVVGACGV] | 48.7 | 47.1 | 50.4 | 41 to 49 |  |  | 
YMDSGIHFV (also called M033) [CTNNB1_S37F6 mimic peptide YMDSGIHFV] | 99.8 | 104 | 95.5 | 90 to 100 |  |  | 
YLDSGIHFG (also called M030) [CTNNB1.S37F mutant peptide YLDSGIHFG] | 53.4 | 53.7 | 53.2 |  | 53.7 |  | 
LLGRNSFEM (also called M220) [TP53.V272M mutant peptide LLGRNSFEM] | 50.9 | 58.8 | 42.9 |  | 50.9 |  | 
GLKDLLNPI (also called M080) [PIK3CA.E453K mutant peptide GLKDLLNPI] | 79.4 | 73.8 | 84.9 | 70 to 79 |  |  | 
VLSDAISAV (also called M121; SOX17_S40312) [SOX17_S403I2 mimic peptide VLSDAISAV] | 90.1 | 89.3 | 90.9 |  |  | 90 to 100 | 
KLYPVQLWV (also called M131) [TP53_C141Y2 mimic peptide KLYPVQLWV] | 81.9 | 84.1 | 79.8 |  |  | 80 to 88 | 
KTYPVQLWV (also called M130) [TP53.C141Y mutant peptide KTYPVQLWV] | 68.9 | 66.6 | 71.2 |  | 68.9 |  | 
KMYPVQLWL (also called M133) [TP53_C141Y8 mimic peptide KMYPVQLWL] | 112 | 122 | 103 | 102 to 113 |  |  | > 100
YQGSYGFLL (also called M200) [TP53.R110L mutant peptide YQGSYGFLL] | 11.9 | 14.3 | 9.6 |  |  |  | < 15
YQGSYGFLV (also called M202) [TP53_R110L4 mimic peptide YQGSYGFLV] | 49.6 | 53.6 | 45.6 |  |  | 50 to 58 | 
YQGSYGFLI (also called M201) [TP53_R110L3 mimic peptide YQGSYGFLI] | 8.9 | 7.1 | 10.8 |  |  |  | < 15
RLIHRDLAA (also called M240) [ERBB2.V842I mutant peptide RLIHRDLAA] | 7.2 | 6.8 | 7.7 |  |  |  | < 15
QLWVDSTPL (also called M180) [TP53.P152L mutant peptide QLWVDSTPL] | 86.2 | 84.3 | 88.1 |  | 86.2 |  | 
VVPCEPPEV (also called M230) [TP53.Y220C mutant peptide VVPCEPPEV] | 33.5 | 29.4 | 37.5 |  | 33.5 |  | 
VLPCEPPEV (also called M231) [TP53_Y220C2 mimic peptide VLPCEPPEV] | 70 | 66.3 | 73.7 |  |  | 70 to 79 | 
VMPCEPPEV (also called M232) [TP53_Y220C3 mimic peptide VMPCEPPEV] | 60.9 | 62.9 | 58.9 |  |  | 61 to 69 | 
YLDCGIHSG (also called M020) [CTNNB1.S33C mutant peptide YLDCGIHSG] | 33.9 | 34.8 | 33 |  | 34.8 |  | 
YLDCGIHSV (also called M022) [CTNNB1_S33C5 mimic peptide YLDCGIHSV] | 102 | 100 | 104 |  |  | 102 to 113 | > 100
SMTCTYFPV (also called M213) [TP53_S127F7 mimic peptide SMTCTYFPV] | 88.4 | 83.4 | 93.3 | 80 to 88 |  |  | 
SMTCTYFPI (also called M215) [TP53_S127F12 mimic peptide SMTCTYFPI] | 27.5 | 32.2 | 22.7 | 18 to 28 |  |  | 
ILNREIDFA (also called M090) [PIK3CA.G118D mutant peptide ILNREIDFA] | 50.4 | 53.1 | 47.8 |  | 50.4 |  | 
CYLYYYSYLL (also called M101) [PTEN R173C2 mimic peptide CYLYYYSYLL] | 18.3 | 16.1 | 20.6 |  |  | 18 to 28 | 
CYVYYYSYLL (also called M100) [PTEN.R173C mutant peptide CYVYYYSYLL] | 38.4 | 38.2 | 38.5 | 33 to 38 |  |  | 
SVTCTYFPA (also called M210) [TP53.S127F mutant peptide SVTCTYFPA] | 8.6 | 7.7 | 9.4 |  |  |  | < 15
NMDEYVHNL (also called M113) [SF3B1_R625H9 mimic peptide NMDEYVHNL] | 58.1 | 62 | 54.3 | 50 to 58 |  |  | 
